Series [1] concerns the molecule itself. Kind of series: non-reducing SDS-PAGE with immunoblot; membrane extracts of transfected CHO-CD14 cells; DTT omitted from the loading buffer, 2% LDS, 80°C for 10 min, NuPAGE 4-12% Bis-Tris gel.
Series [2] concerns the molecule itself. Kind of series: non-reducing SDS-PAGE with immunoblot; crude membrane fraction of mouse lung (homogenised with 20 mM N-ethylmaleimide), 15 µg, 4-12% gradient gel, reducing and non-reducing, IB with anti-RAGE; RAGE knockout lung as control. For orientation: A western blot detects proteins with antibodies after separation by electrophoresis.

The text below walks through data of PMC3524233, “Disulfide Bonds within the C2 Domain of RAGE Play Key Roles in Its Dimerization and Biogenesis” (PLoS ONE, 2012).

B1: RAGE C2 domain-only fragment (residues 235-404) (domain or fragment, UniProt Q15109 235-404, looked up)
chain: LEEVQLVVEPEGGAVAPGGTVTLTCEVPAQPSPQIHWMKDGVPLPLPPSPVLILPEIGPQDQGTYSCVATHSSHGPQESRAVSISIIEPGEEGPTAGSVGGSGLGTLALALGILGGLGTAALLIGVILWQRRQRRGEERKAPENQEEEEERAELNQSEEPEAGESSTGGP
notes: RAGE C2 domain-only fragment, residues 235-404 (C2 domain with the transmembrane helix and the cytosolic portion); also called C2 fragment; source: CHO-CD14, transfected, expressed on the cell surface, in membrane extracts
Turning to B1, the “stoichiometry N” value in series [1] came to 2.

B2: canonical full-length RAGE from mouse lung (receptor, mouse (endogenous in lung), UniProt Q62151 23-402, looked up)
chain: GQNITARIGEPLVLSCKGAPKKPPQQLEWKLNTGRTEAWKVLSPQGGPWDSVARILPNGSLLLPATGIVDEGTFRCRATNRRGKEVKSNYRVRVYQIPGKPEIVDPASELTASVPNKVGTCVSEGSYPAGTLSWHLDGKLLIPDGKETLVKEETRRHPETGLFTLRSELTVIPTQGGTHPTFSCSFSLGLPRRRPLNTAPIQLRVREPGPPEGIQLLVEPEGGIVAPGGTVTLTCAISAQPPPQVHWIKDGAPLPLAPSPVLLLPEVGHEDEGTYSCVATHPSHGPQESPPVSIRVTETGDEGPAEGSVGESGLGTLALALGILGGLGVVALLVGAILWRKRQPRREERKAPESQEDEEERAELNQSEEAEMPENGAGGP
notes: mouse RAGE, the canonical full-length isoform of lung tissue; source: endogenous, crude membrane fraction of wild-type (C57BL/6) mouse lung
B2: the “stoichiometry N” value in series [2] was 2.

Broadly, the stoichiometry N is a count of units in the complex or per binding partner.
